Patent US20150299263A1 (FACTOR THERAPEUTICS, published 2015)
Where no end group is shown, it is not given here.

Columns and labels:
[1] = target: T1, Human receptor grade IGF-II (insulin-like growth factor II) (human, UniProt P01344 25-91); test: VN-peptide array, ligand overlay, immunoblot/ECL
T1 construct: Bought recombinant protein, overlaid in solution on the VN-peptide array

[2] = target: T2, Human receptor grade IGFBP-5 (insulin-like growth factor binding protein 5) (human, UniProt P24593 21-272); test: VN-peptide array, ligand overlay, immunoblot/ECL, TotalLab spot intensity
T2 construct: Bought recombinant protein, overlaid in solution on the VN-peptide array
Description: (§1) Methanol or ethanol was used to enhance the rehydration of peptide spots that might be hydrophobic. The peptides spotted onto the membranes were activated by incubating in 3 mL of 70% ethanol for five mins. The membranes were subsequently washed three times, 10 minutes each, in 10 mL TBS (Tris Buffered Saline; 8 g NaCl, 0.2 g KCl and 6.1 g Tris Base into 1000 mL of milliQ water, pH 7) with gentle rocking. Membrane blocking was performed by incubating in 10 mL casein-based membrane blocking buffer (MBS; Sigma-Aldrich) overnight at 4° C. The following day, the membranes were washed twice, 10 minutes each, in 10 mL TBS-T (TBS+0.05% Tween-20; pH 7).
(§2) Ligands used to test binding to VN-peptides were IGFBP-3, IGFBP-5 and IGF-II. For ligand binding, four separate solutions of 1 μg/mL ligand in 10 mL MBS buffer were prepared and each membrane was incubated in one of the four ligand solutions overnight at 4° C., with gentle rocking. […] The following day, the membranes were washed three times, 10 minutes each, in 10 mL TBS-T.
(§3) The binding of the ligands to peptides within the membrane was detected using immunoblotting. The membranes were incubated overnight at 4° C. with 10 mL primary antibody solution (in MBS buffer) targeting the respective ligands. The antibodies used were anti-IGFBP-3 (1:10,000), anti-IGFBP-5 (1:10,000) and anti-IGF-II (1:5000) to detect IGFBP-3, IGFBP-5 and IGF-II respectively. The following day, the membranes were washed three times, 10 minutes each, in 10 mL TBS-T and incubated with 10 mL HRP-conjugated secondary IgG antibody diluted 1:15,000 in MBS buffer for 1 hour at room temperature. Following a further three washes of 10 minutes each, the peptide spots were visualized using ECL. The membranes were exposed onto x-ray films and developed using a film processor (AGFA CP 1000), or were imaged directly using the ChemiDoc™ XRS system (BioRad).

[3] = target: T3, Human receptor grade IGFBP-3 (insulin-like growth factor binding protein 3) (human, UniProt P17936 28-291); test: as above
T3 construct: Bought recombinant protein, overlaid in solution on the VN-peptide array
Description: as §1, §2, §3

[4] = target: T1, Human receptor grade IGF-II …; test: as above
Description: as §1, §2, §3

T3 sequence (P17936 28-291 limits assumed): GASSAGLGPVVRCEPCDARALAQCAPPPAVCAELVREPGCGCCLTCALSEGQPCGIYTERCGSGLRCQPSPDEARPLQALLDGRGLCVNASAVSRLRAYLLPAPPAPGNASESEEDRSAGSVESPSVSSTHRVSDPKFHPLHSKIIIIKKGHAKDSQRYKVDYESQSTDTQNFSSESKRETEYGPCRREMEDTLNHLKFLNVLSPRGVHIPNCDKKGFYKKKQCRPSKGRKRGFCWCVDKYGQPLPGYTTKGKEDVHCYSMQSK
T2 sequence (P24593 21-272 limits assumed): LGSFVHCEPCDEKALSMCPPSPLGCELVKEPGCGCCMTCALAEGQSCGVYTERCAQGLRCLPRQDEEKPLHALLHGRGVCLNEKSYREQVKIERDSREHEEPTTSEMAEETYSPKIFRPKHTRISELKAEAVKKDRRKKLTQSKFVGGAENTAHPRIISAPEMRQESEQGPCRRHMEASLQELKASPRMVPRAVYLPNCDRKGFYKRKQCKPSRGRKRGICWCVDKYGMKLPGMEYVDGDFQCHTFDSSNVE
T1 sequence (P01344 25-91 limits assumed): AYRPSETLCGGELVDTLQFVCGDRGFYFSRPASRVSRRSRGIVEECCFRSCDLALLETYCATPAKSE

Row | Binder | binding result [1] | Intensity (against -ve control) [2] | Intensity (against -ve control) [3] | Intensity (against -ve control) [4]
1 | CQCDELCSYYQSCCTD (not fully specified (N-terminus); cysteine pairing not given here; also: free end capped by acetylation, immobilised on cellulose membrane (SPOT synthesis)) [VN-peptide 1A (array grid A13)] | binds | 11 fold over negative controls | 10 fold over negative controls | –
2 | VDAALALPAHSYSGRE (not fully specified (N-terminus); also: free end capped by acetylation, immobilised on cellulose membrane (SPOT synthesis)) [VN-peptide 3A (array grid F5)] | – | 3 fold over negative controls | 1 fold over negative controls | 5 fold over negative controls
3 | ALALPAHSYSGRERVY (not fully specified (N-terminus); also: free end capped by acetylation, immobilised on cellulose membrane (SPOT synthesis)) [VN-peptide 3B (array grid F6)] | – | 3 fold over negative controls | 1 fold over negative controls | 10 fold over negative controls
4 | KGKQYWEYQFQHQPSQ (not fully specified (N-terminus); also: free end capped by acetylation, immobilised on cellulose membrane (SPOT synthesis)) [VN-peptide 4A (array grid F12)] | – | – | 6 fold over negative controls | –
5 | QYWEYQFQHQPSQEEC (not fully specified (N-terminus); also: free end capped by acetylation, immobilised on cellulose membrane (SPOT synthesis)) [VN-peptide 4B (array grid F13)] | – | – | 12 fold over negative controls | –
6 | FEHFAMMQRDSWEDIF (not fully specified (N-terminus); also: free end capped by acetylation, immobilised on cellulose membrane (SPOT synthesis)) [VN-peptide 5A (array grid G5)] | – | – | 1.5 fold over negative controls | –
7 | FAMMQRDSWEDIFELL (not fully specified (N-terminus); also: free end capped by acetylation, immobilised on cellulose membrane (SPOT synthesis)) [VN-peptide 5B (array grid G6)] | – | – | 4.5 fold over negative controls | –
8 | MQRDSWEDIFELLFWG (not fully specified (N-terminus); also: free end capped by acetylation, immobilised on cellulose membrane (SPOT synthesis)) [VN-peptide 5C (array grid G7)] | – | – | 4.5 fold over negative controls | –
9 | DSWEDIFELLFWGRTS (not fully specified (N-terminus); also: free end capped by acetylation, immobilised on cellulose membrane (SPOT synthesis)) [VN-peptide 5D (array grid G8)] | – | – | 2.5 fold over negative controls | –
10 | GRTSAGTRQPQFISRD (not fully specified (N-terminus); also: free end capped by acetylation, immobilised on cellulose membrane (SPOT synthesis)) [VN-peptide 6A (array grid G12)] | – | 7 fold over negative controls | 2 fold over negative controls | 12 fold over negative controls
11 | SAGTRQPQFISRDWHG (not fully specified (N-terminus); also: free end capped by acetylation, immobilised on cellulose membrane (SPOT synthesis)) [VN-peptide 6B (array grid G13)] | – | 1.5 fold over negative controls | 1 fold over negative controls | 0 fold over negative controls
12 | TRQPQFISRDWHGVPG (not fully specified (N-terminus); also: free end capped by acetylation, immobilised on cellulose membrane (SPOT synthesis)) [VN-peptide 6C (array grid G14)] | – | 5 fold over negative controls | 1.5 fold over negative controls | 1.5 fold over negative controls
13 | LFSSEESNLGANNYDD (not fully specified (N-terminus); also: free end capped by acetylation, immobilised on cellulose membrane (SPOT synthesis)) [VN-peptide 7A (array grid I7)] | – | – | – | 17 fold over negative controls
14 | SEESNLGANNYDDYRM (not fully specified (N-terminus); also: free end capped by acetylation, immobilised on cellulose membrane (SPOT synthesis)) [VN-peptide 7B (array grid I8)] | – | – | – | 18 fold over negative controls
15 | SNLGANNYDDYRMDWL (not fully specified (N-terminus); also: free end capped by acetylation, immobilised on cellulose membrane (SPOT synthesis)) [VN-peptide 7C (array grid I9)] | – | – | – | 12 fold over negative controls
16 | KYYRVNLRTRRVDTVD (not fully specified (N-terminus); also: free end capped by acetylation, immobilised on cellulose membrane (SPOT synthesis)) [VN-peptide 8A (array grid J4)] | – | 3 fold over negative controls | 5 fold over negative controls | 5 fold over negative controls
17 | RVNLRTRRVDTVDPPY (not fully specified (N-terminus); also: free end capped by acetylation, immobilised on cellulose membrane (SPOT synthesis)) [VN-peptide 8B (array grid J5)] | – | 7 fold over negative controls | 7 fold over negative controls | 17 fold over negative controls
18 | Ac-LRTRRVDTVDPPYPRS (also: immobilised on cellulose membrane) [VN-peptide 8C (array grid J6)] | – | 9 fold over negative controls | 10 fold over negative controls | 13 fold over negative controls
19 | KPEGIDSRPETLHPGR (not fully specified (N-terminus); also: free end capped by acetylation, immobilised on cellulose membrane (SPOT synthesis)) [VN-peptide 2A (array grid C12)] | – | 5 fold over negative controls | 4 fold over negative controls | –
20 | Ac-RRVDTVDPPYPRSIAQ (also: immobilised on cellulose membrane) [VN-peptide 8D (array grid J7)] | – | 8 fold over negative controls | 4 fold over negative controls | 11 fold over negative controls
21 | GIDSRPETLHPGRPQP (not fully specified (N-terminus); also: free end capped by acetylation, immobilised on cellulose membrane (SPOT synthesis)) [VN-peptide 2B (array grid C13)] | – | 7 fold over negative controls | 2 fold over negative controls | –
22 | LFSSEESNLGANNYDDYRMDWL (Free synthetic peptide (Mimotopes) in the migration and growth assays; The array carried only its overlapping 16-mers 7A-7C; also called Peptide 7; motif-7 mimic) [VN peptide P7 (LFSSEESNLGANNYDDYRMDWL)] | binds | – | – | –
